The target in test [1] is T1, Tau peptide encompassing residues 299-318 (human).
T1 construct: also called Tau protein (peptide)
T1 peptide: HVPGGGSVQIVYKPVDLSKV
Put plainly: isothermal titration calorimetry (ratio of the KD values against CBTAU-27.1). A general note: In ITC the heat of successive injections is recorded.

Test [2] concerns the target T1, Tau peptide encompassing residues …. Kind of test: isothermal titration calorimetry, peptide in cell titrated with IgG, PBS pH 7.4, one set of sites model.
Procedure: Affinities of the binding molecules of the present invention were determined using a Microcal Auto-iTC200 isothermal titration calorimeter (Malvern). Tau and tau antibodies were dialysed to PBS, pH 7.4 to ensure perfect buffer matching conditions. […] Data was fitted according to a one set of sites model using Microcal PEAQ-ITC Analysis Software (Malvern).

B1: antibody of the present invention (antibody, V domains shown)
VH: QVQLVESGPEMRKPGESLKISCKTSGYIFSDYWTAWVRQLPGKGLQWMGIIYSGDSDTRYHPSVQGHVTMSTDSSLTTAYLQWSSLKASDTGIYYCARLDARVDAGWQLDSWGQGTLVTVSS
VL: DIQLTQSPDSLAVSLGERATINCKSSQSVFYRDNNKNYLAWYQHKSGQPPKLLFFWASSRESGVSDRFSGSGSGTDFTLTIDNLQAEDVALYYCQHYFNIPHNFGQGTKLEIK
notes: also called antibody according to the present invention
On to B1, for which the “fold improvement in affinity relative to CBTAU-27.1” value in test [1] amounted to 50 fold. Moreover, the Kd (usually the equilibrium constant for the complex coming apart) in test [2] is 12.8 nM.

The values above are taken from US20210122810A1 (Janssen / Centocor, published 2021).
